Broadly, the Km is the substrate concentration at which the rate is half of its maximum. A word on the kcat: it is the maximal rate divided by the concentration of active sites.

These results are taken from PMC5959072, “Biochemical characterization of RecBCD enzyme from an Antarctic Pseudomonas species and identification of its cognate Chi (χ) sequence” (PLoS ONE, 2018).

The subject of the data set is Nc1ncnc2c1ncn2[C@@H]1O[C@H](COP(=O)(O)OP(=O)(O)OP(=O)(O)O)[C@@H](O)[C@H]1O. Nature of the data set: purified protein. Conditions: 22 °C, pH 7.5, 1 mM Mg acetate, NdeI-linearized pBR322 dsDNA, ATP sites in RecB and RecD.

Source text: TLC ATPase assay with [γ-32P]ATP tracer on RecBCD^Ps (RecBCD enzyme of Pseudomonas syringae Lz4W)

For the substance “RecBCD^Ps (RecBCD enzyme of Pseudomonas syringae Lz4W) (Pseudomonas syringae)”, the Km worked out at 57.8 ± 10.1 µM and the kcat worked out at 245 s⁻¹.
